Laboratory results reported in article PMC11960969, “Mdga2 deficiency leads to an aberrant activation of BDNF/TrkB signaling that underlies autism-relevant synaptic and behavioral changes in mice” (PLOS Biology, 2025).

Tested on: cell membrane localization in HeLa cells and mouse primary neurons
Assay: Immunostaining of membrane localization of MDGA2, ΔMAM or V930I in transfected cells
Assay type: cell-based
Conditions: HeLa cells transfected 24 h, S3E Fig
From the text: Fig 7 The autism spectrum disorder (ASD)-associated MDGA2 V930I mutation impairs the MDGA2-TrkB interaction and MDGA2’s inhibitory effect on the tyrosine kinase B (TrkB) signaling. (A) Schematic depiction of the WT human MDGA2 and its V930I mutation constructs that are tagged with GFP. (B, C) HeLa cells (B) and mouse primary neurons (C) transfected with MDGA2 (green) or V930I (green) were immunostained with an antibody against the plasma membrane protein ATP1A1 (red) and then observed by confocal microscopy. Scale bars = 10 μm. (D) Cell surface expression of WT MDGA2 or V930I in transfected HeLa cells was determined by surface biotinylation assays. Biotinylated (cell surface) protein levels were quantified by densitometry and normalized to total protein levels for comparison (WT MDGA2 levels were set to one arbitrary unit). n = 4 experimental replicates. (E) Mouse primary neurons were transfected with MDGA2, V930I, or ΔMAM. […] Immunoprecipitated protein levels were quantified by densitometry, normalized to respective inputs, and compared to those transfected with MDGA2 (set to one arbitrary units). n = 4 experimental replicates. […] Levels of phosphorylated proteins were quantified by densitometry, normalized to respective total protein levels and compared to controls (set to one arbitrary units). n = 6 experimental replicates. […]

B1: MDGA2-ΔMAM: truncated form of MDGA2 lacking its MAM domain (protein)
chain: PPTVRIVHSGLACNIEEERYSERVYTIREGETLELTCLVTGHPRPQIRWTKTAGSASDRFQDSSVFNETLRITNIQRHQGGRYYCKAENGLGSPAIKSIRVDVYYLDDPVVTVHQSIGEAKEQFYYERTVFLRCVANSNPPVRYSWRRGQEVLLQGSDKGVEIYEPFFTQGETKILKLKNLRPQDYANYSCIASVRNVCNIPDKMVSFRLSNKTASPSIKLLVDDPIVVNPGEAITLVCVTTGGEPAPSLTWVRSFGTLPEKTVLNGGTLTIPAITSDDAGTYSCIANNNVGNPAKKSTNIIVRALKKGRFWITPDPYHKDDNIQIGREVKISCQVEAVPSEELTFSWFKNGRPLRSSERMVITQTDPDVSPGTTNLDIIDLKFTDFGTYTCVASLKGGGISDISIDVNISSSTVPPNLTVPQEKSPLVTREGDTIELQCQVTGKPKPIILWSRADKEVAMPDGSMQMESYDGTLRIVNVSREMSGMYRCQTSQYNGFNVKPREALVQLIVQYPPAVEPAFLEIRQGQDRSVTMSCRVLRAYPIRVLTYEWRLGNKLLRTGQFDSQEYTEYAVKSLSNENYGVYNCSIINEAGAGRCSFLVTGKAYAPEFYYDTYNPVWQNRHRVYSYSLQWTQMNPDAVDRIVAYRLGIRQAGQQRWWEQEIKINGNIQKGELITYNLTELIKPEAYEVRLTPLTKFGEGDSTIRVIKYSAPVNPHLREQDLATKNSVD
modifications: left off: GFP, end not stated, kept
notes: truncated form of MDGA2 lacking its MAM domain
cell membrane localization: no effect on its cell membrane localization
